This note sets out measurements from patent US20030203415A1 (published 2003).

B1: 304A-12-H12 synthetic peptide (peptide)
peptide: DWVCEYFKNQWFCNVLAPGGEGGGSK-NH2
modifications: not fully specified (residue 26, bridges); cysteine pairing not given here; also: fluorescein only on labelled aliquots
notes: synthetic; also called DX306
B2: TN10/9-E01 (peptide)
peptide: NWDCMFGAEGWACSPW
modifications: not fully specified (bridges); cysteine pairing not given here
B3: TN10/9-F11 (peptide)
peptide: NWFCEMIGRQWGCVPS
B4: FX-G08 (peptide)
peptide: NWVCNLFKNQWFCNSY
notes: also called TN10/9 Isolate G08
B5: AB-A07 (peptide)
peptide: DWVCENKKDQWTCNLL
modifications: not fully specified (bridges); cysteine pairing not given here
notes: also called TN10/9 Isolate A07
B6: G01 (peptide)
peptide: NWRCKLFPRYPYCSSW
notes: also called TN10/9 Isolate G01
B7: TN10/9-D04 (peptide)
peptide: DWVCNFDQGLAHCFPS
modifications: not fully specified (bridges); cysteine pairing not given here
B8: B10 (peptide)
peptide: RYCEFFPWSLHCGRP
notes: also called TN10/9 Isolate B10
B9: 304A-14-A12 synthetic peptide (peptide, part only; not given: C-terminal lysine extension, part only)
peptide, part: DWVCNLFKNQWFCDTL
modifications: not fully specified (C-terminus, bridges); cysteine pairing not given here; also: fluorescein on ε-amino of C-terminal lysine, no C-terminal K in given chain
B10: Hybrid H12/A12 (peptide, part only; not given: C-terminal lysine extension, part only)
peptide, part: DWVCEYFKNQWFCDTL
modifications: not fully specified (C-terminus, bridges); cysteine pairing not given here; also: fluorescein on ε-amino of C-terminal lysine, no C-terminal K in given chain
B11: 315A-18-E02 synthetic peptide (peptide)
peptide: DWVCEFFKDQWFCNILAPGGEGGGSK(fluorescein)-NH2
modifications: not fully specified (bridges); cysteine pairing not given here; also: fluorescein on C-terminal Lys ε-amino in labelled aliquots
notes: synthetic
B12: 315A-18-E01 synthetic peptide (peptide)
peptide: DWVCEIVKNQWICNPLAPGGEGGGSK(fluorescein)-NH2
modifications: not fully specified (bridges); cysteine pairing not given here; also: fluorescein on C-terminal Lys ε-amino in labelled aliquots
notes: synthetic
B13: 315A-17-B01 synthetic peptide (peptide)
peptide: DWVCEWLKMQWACNILAPGGEGGGSK(fluorescein)-NH2
modifications: not fully specified (bridges); cysteine pairing not given here; also: fluorescein on C-terminal Lys ε-amino in labelled aliquots
notes: synthetic
B14: 315A-17-G08 synthetic peptide (peptide)
peptide: DWVCEFIKSQWFCNVLAPGGEGGGSK(fluorescein)-NH2
modifications: not fully specified (bridges); cysteine pairing not given here; also: fluorescein on C-terminal Lys ε-amino in labelled aliquots
notes: synthetic
B15: P-G08 (peptide)
peptide: SNWVCNLFKNQWFCNSYAPGGEGGGSK(fluorescein)-NH2
modifications: not fully specified (bridges); printed as SNWVCNLFKNQWFCNSYAPGGEGGGSK-CONH2; cysteine pairing not given here; also: fluorescein on C-terminal Lys ε-amino in labelled aliquots
notes: synthetic 27-mer; also called Isolate G08 peptide
B16: P-A07 (peptide)
peptide: SDWVCENKKDQWTCNLLAPGGEGGGSK(fluorescein)-NH2
modifications: not fully specified (bridges); printed as SDWVCENKKDQWTCNLLAPGGEGGGSK-CONH2; cysteine pairing not given here; also: fluorescein on C-terminal Lys ε-amino in labelled aliquots
notes: synthetic 27-mer
B17: P-B09 (peptide)
peptide: SDWVCELTTGGYVCQPLAPGGEGGGSK(fluorescein)-NH2
modifications: not fully specified (bridges); printed as SDWVCELTTGGYVCQPLAPGGEGGGSK-CONH2; cysteine pairing not given here; also: fluorescein on C-terminal Lys ε-amino in labelled aliquots
notes: synthetic 27-mer
B18: 315A-17-B12 synthetic peptide (peptide)
peptide: DWVCEWLKPQWYCNSLAPGGEGGGSK(fluorescein)-NH2
modifications: not fully specified (bridges); cysteine pairing not given here; also: fluorescein on C-terminal Lys ε-amino in labelled aliquots
notes: synthetic

Several values for one entry are separate records, joined by “and”; a condition that tells them apart may be missing. Identical values can stand only once. Ends that are not written are not given here. fluorescein = fluorescein label attached through NHS-fluorescein to the ε-amino side group of the C-terminal lysine

T2 sequence (P02768 25-609 limits assumed): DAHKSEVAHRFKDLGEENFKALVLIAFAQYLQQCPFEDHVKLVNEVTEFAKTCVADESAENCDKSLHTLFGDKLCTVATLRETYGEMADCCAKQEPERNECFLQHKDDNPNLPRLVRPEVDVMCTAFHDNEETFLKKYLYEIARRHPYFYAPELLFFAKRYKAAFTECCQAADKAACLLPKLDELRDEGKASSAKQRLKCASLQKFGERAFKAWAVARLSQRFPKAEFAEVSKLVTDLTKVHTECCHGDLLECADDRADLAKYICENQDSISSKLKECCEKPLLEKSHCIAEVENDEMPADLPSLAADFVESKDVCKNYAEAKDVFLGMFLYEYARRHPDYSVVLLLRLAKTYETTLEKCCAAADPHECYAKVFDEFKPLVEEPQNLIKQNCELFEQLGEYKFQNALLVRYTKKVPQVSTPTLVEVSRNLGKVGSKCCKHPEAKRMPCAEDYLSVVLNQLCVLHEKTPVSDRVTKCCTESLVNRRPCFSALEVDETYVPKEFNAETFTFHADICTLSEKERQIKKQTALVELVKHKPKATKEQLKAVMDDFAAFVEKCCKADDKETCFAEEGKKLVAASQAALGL

For one experiment, the target named is T1, H6NA3 (UniProt P06731 35-144; P06731 499-590, limits assumed).
T1 construct: domain: N domain;domain: A3 domain; recombinant truncated target
T1 sequence: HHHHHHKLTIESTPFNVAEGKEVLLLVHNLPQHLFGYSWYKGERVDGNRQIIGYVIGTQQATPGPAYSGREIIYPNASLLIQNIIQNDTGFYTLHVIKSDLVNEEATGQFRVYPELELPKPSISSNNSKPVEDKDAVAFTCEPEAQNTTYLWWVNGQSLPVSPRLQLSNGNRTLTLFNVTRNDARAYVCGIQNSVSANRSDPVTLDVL
Nature of the experiment: fluorescence anisotropy, direct binding. For orientation: Polarisation of emitted light reports the rotation of a fluorescent probe.
For the molecule B1, the “fold increase in affinity compared to the Isolate G08 peptide” value was determined as 8 fold.

A further experiment addresses T2, human serum albumin (HSA) (human, UniProt P02768 25-609).
T2 construct: control target
The experiment in a line: phage ELISA on immobilized HSA. (In general: An ELISA detects its analyte on a solid surface through an enzyme-linked reagent.)
Take B2: the binding result is “no binding”.
B3: the binding result is reported as “no binding”.
As for B4, the binding result is “no binding”.
For the molecule B5, the binding result was “no binding”.
Regarding B6, the binding result is “no binding”.
As to B7, the binding result is on record as “no binding”.
As to B8, the binding result was “no binding”.

A further experiment addresses T1, H6NA3. Nature of the experiment: fluorescence anisotropy, direct binding. The source holds these as a separate data set.
As to B9, the Kd worked out at 640 nM.
Take B10: the dissociation constant Kd was 2800 nM.

A further experiment deals with T1, H6NA3. The experiment in a line: fluorescence anisotropy, direct binding (replicate). The protocol:
(§1) Dissociation constants were determined using fluorescence anisotropy, through direct binding measurements to either NA-3 or CEA in PBS with 0.01% TWEEN 20. In direct binding assays, the concentration of the fluorescein-labeled peptide is held constant and the concentration of NA3 is varied. In the competition experiment, the concentration of the fluorescein-labeled peptide and the NA3 target are held constant and the concentration of competitor peptide (from Isolate 12-H12) is varied. The change in anisotropy is fit to the appropriate equation via nonlinear regression to obtain the apparent Kd. […] Replicate analyses were run for certain binders and are reported to confirm accuracy and precision of measurements. KD standard error values are calculated from the nonlinear regression (SIGMAPLOT, SPSS Science, Chicago, Ill.).
On to B1, for which the affinity, expressed as Kd, was 220 nM.

The next experiment addresses T1, H6NA3. The experiment in a line: fluorescence anisotropy, competition with peptide from Isolate 12-H12 (replicate). The protocol: as §1
On to B11, for which the Kd is 290 nM and 220 nM and 140 nM.
For the molecule B12, the Kd is 490 nM and 170 nM.
Consider B1, for which binding was characterised by a dissociation constant (Kd) of 240 nM.
For the molecule B13, the Kd was found to be 1200 nM. Compared with the last molecule, the Kd is about 5-fold higher.
Turning to B14, binding was put at a Kd of 160 nM. Compared with the last molecule, the Kd is about 7.5-fold lower.

For a further experiment, the target named is T1, H6NA3. Nature of the experiment: fluorescence anisotropy, direct binding. The source holds these as a separate data set. The protocol:
(§2) Dissociation constants were determined using fluorescence anisotropy, through direct binding measurements and competition experiments. In direct binding assays, the concentration of the fluorescein-labeled peptide is held constant and the concentration of H6NA3 is varied. In the competition experiment, the concentration of the fluorescein-labeled peptide and the H6NA3 target are held constant and the concentration of a competitor (cT84.66, unlabeled) is varied. The change in anisotropy is fit to the appropriate equation via nonlinear regression to obtain the apparent Kd.
Dissociation constants were determined using fluorescence anisotropy, through direct binding measurements (see Example 6).
Turning to B1, binding was characterised by a dissociation constant (Kd) of 240 nM.

Another experiment deals with T1, H6NA3. The experiment in a line: fluorescence anisotropy, direct binding. The source holds these as a separate data set. The protocol:
as §2
Consider B15, for which the Kd worked out at 1.9 µM.
B16 registered a Kd of 5.9 µM.
Turning to B17, binding was characterised by a dissociation constant (Kd) of 6 µM.

The target of another experiment is T3, carcinoembryonic antigen (CEA) (UniProt P06731 35-685, limits assumed).
T3 sequence (looked up): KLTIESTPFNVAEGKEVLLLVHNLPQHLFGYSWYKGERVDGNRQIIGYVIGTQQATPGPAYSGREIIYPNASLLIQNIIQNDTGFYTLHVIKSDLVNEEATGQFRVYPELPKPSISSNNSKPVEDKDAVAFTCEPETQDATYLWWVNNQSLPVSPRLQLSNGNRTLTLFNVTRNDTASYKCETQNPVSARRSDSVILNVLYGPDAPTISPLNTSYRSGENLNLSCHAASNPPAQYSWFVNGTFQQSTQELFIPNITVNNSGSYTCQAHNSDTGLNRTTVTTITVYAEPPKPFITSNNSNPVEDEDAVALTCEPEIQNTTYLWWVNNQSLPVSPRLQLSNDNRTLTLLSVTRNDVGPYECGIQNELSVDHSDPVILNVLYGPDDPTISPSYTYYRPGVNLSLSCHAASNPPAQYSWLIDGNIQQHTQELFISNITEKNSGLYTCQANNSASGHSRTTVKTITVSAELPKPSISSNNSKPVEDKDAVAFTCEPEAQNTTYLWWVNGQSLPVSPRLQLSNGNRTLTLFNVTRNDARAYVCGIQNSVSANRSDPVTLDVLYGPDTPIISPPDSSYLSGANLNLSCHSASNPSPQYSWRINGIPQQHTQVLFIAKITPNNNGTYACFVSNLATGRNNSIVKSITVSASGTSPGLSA
Nature of the experiment: fluorescence anisotropy, direct binding. The protocol: as §1
As for B11, binding was put at a Kd of 2600 nM.
On to B18, for which the binding result is “no binding”.
Molecule B1 returned a Kd of 3700 nM.
Take B14: the dissociation constant Kd was determined as 1600 nM.

A further experiment deals with T1, H6NA3. Nature of the experiment: fluorescence anisotropy, direct binding. The source holds these as a separate data set. The protocol:
as §1
Turning to B11, the affinity, expressed as Kd, was 380 nM.
Take B18: the Kd was determined as 1800 nM.
B12: the Kd is 870 nM.
For the molecule B1, the Kd is 300 nM.
In the case of B13, the Kd came out at 950 nM.
B14 showed a Kd of 270 nM.

Another experiment has as its target T1, H6NA3. Nature of the experiment: fluorescence anisotropy, competition with peptide from Isolate 12-H12. As to the method: as §1
For B11, binding was put at a Kd of 310 nM.
In the case of B18, the Kd came to 650 nM.
Still for that read-out and setting: the figure for B12 is 230 nM; for B1 it is 340 nM.
In turn, B13 had a Kd of 900 nM.
B14: the Kd worked out at 160 nM.

The target in a further experiment is T1, H6NA3. The experiment in a line: fluorescence anisotropy, competition with unlabeled cT84.66. The protocol:
as §2
Take B16: the affinity, expressed as Kd, was 3600 nM.
Turning to B17, the affinity, expressed as Kd, was 1000 nM.

As a reminder, the Kd is a measure of binding affinity in units of concentration.
